Experimental data as given in patent US20120003149A1.

Columns and labels:
[1] = molecular target: full-length human GPR87 with an N-terminal FLAG tag, stably expressed on CHO cells (human); experiment: flow cytometry, hGPR87 stable expression CHO cell line, antibody at 1 µg/mL (no primary antibody: 18.36)
[2] = molecular target: human GPR87 (G protein-coupled receptor 87), endogenously expressed in Me180 cells (human); experiment: flow cytometry, Me180 cells transfected with control siRNA, antibody at 1 µg/mL (no primary antibody: 10.71)
[3] = molecular target: human GPR87 (G protein-coupled receptor 87), endogenously expressed in Me180 cells (human); experiment: flow cytometry, Me180 cells transfected with siRNA against GPR87 (expression suppressed to 5.9% at the RNA level), antibody at 0.1 µg/mL (no primary antibody: 10.16)
[4] = molecular target: full-length human GPR87 with an N-terminal FLAG tag, stably expressed on CHO cells (human); experiment: flow cytometry, hGPR87 stable expression CHO cell line, antibody at 10 µg/mL (no primary antibody: 18.36)
[5] = molecular target: human GPR87 (G protein-coupled receptor 87), endogenously expressed in Me180 cells (human); experiment: flow cytometry, Me180 cells transfected with control siRNA, antibody at 10 µg/mL (no primary antibody: 10.71)
[6] = molecular target: human GPR87 (G protein-coupled receptor 87), endogenously expressed in Me180 cells (human); experiment: flow cytometry, Me180 cells transfected with siRNA against GPR87 (expression suppressed to 5.9% at the RNA level), antibody at 10 µg/mL (no primary antibody: 10.16)
[7] = molecular target: human GPR87 (G protein-coupled receptor 87), endogenously expressed in Me180 cells (human); experiment: flow cytometry, Me180 cells transfected with siRNA against GPR87 (expression suppressed to 5.9% at the RNA level), antibody at 1 µg/mL (no primary antibody: 10.16)
[8] = molecular target: full-length human GPR87 with an N-terminal FLAG tag, stably expressed on CHO cells (human); experiment: flow cytometry, hGPR87 stable expression CHO cell line, antibody at 0.1 µg/mL (no primary antibody: 18.36)
[9] = molecular target: full-length human GPR87 with an N-terminal FLAG tag, stably expressed on CHO cells (human); experiment: flow cytometry, hGPR87 stable expression CHO cell line, antibody at 0.01 µg/mL (no primary antibody: 18.36)
[10] = molecular target: human GPR87 (G protein-coupled receptor 87), endogenously expressed in Me180 cells (human); experiment: flow cytometry, Me180 cells transfected with control siRNA, antibody at 0.1 µg/mL (no primary antibody: 10.71)

human GPR87 (G protein-coupled receptor 87), endogenously expressed in Me180 cells (human), sequence (chain, as listed by the source): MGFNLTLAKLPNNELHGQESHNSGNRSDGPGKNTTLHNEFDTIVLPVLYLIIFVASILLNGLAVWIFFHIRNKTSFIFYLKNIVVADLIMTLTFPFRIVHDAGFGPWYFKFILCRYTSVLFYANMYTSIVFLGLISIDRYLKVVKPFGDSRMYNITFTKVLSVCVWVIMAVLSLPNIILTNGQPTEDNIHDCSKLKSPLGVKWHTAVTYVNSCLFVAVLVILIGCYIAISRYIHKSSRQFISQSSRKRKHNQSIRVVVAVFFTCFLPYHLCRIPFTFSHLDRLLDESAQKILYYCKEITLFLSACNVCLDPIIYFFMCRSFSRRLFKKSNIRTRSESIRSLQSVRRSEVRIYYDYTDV
full-length human GPR87 with an N-terminal FLAG tag, stably expressed on CHO cells (human), sequence (chain, as listed by the source): as above

geometric mean of the fluorescence intensity [1] | geometric mean of the fluorescence intensity [2] | geometric mean of the fluorescence intensity [3] | geometric mean of the fluorescence intensity [4] | geometric mean of the fluorescence intensity [5] | geometric mean of the fluorescence intensity [6] | geometric mean of the fluorescence intensity [7] | geometric mean of the fluorescence intensity [8] | geometric mean of the fluorescence intensity [9] | geometric mean of the fluorescence intensity [10] | Binder
578 | 24.6 | 10.3 | 1240 | 63.5 | 20.6 | 12.9 | 110 | 28.9 | 12.9 | C0804 antibody (antibody, V domains shown) VH: QIQLVQSGPELKKPGETVKISCKVSGYTFTDYSMHWVKQAPGKGLKWMAWINTETGKPTYADDFKGRFAFSLEASASTAYLQINNLKNEDTATYFCASLDYWGQGTTLTVSS VL: DVLMTQTPLSLPVSLGDQASISCRSSQNVVHSSGNTYLEWFLQKPGQSPKLLIYKVSTRFSGVPDRFSGSGSGTDFTLKISRVEAEDLGVYYCFQGSHVPYTFGGGTKLEIKR
496 | 28.8 | 10.1 | 1290 | 60.5 | 22.4 | 13.6 | 91.6 | 26.9 | 13.3 | C0815 antibody (antibody, V domains shown) VH: QIQLVQSGPELKNPGETVKISCKVSGYTFTDYSMHWVKQAPGKGLKWMAWINTETGKPTYADDFKGRFAFSLETSASTAYLQINTLKNEDTATYFCASLDYWGQGTTLTVSS VL: DVLMTQTPLSLPVSLGDQASISCRSSQNVVHSSGNTYLEWFLQKPGQSPKLLIYKVSNRFSGVPDRFSGSGSGTDFTLKISRVEAEDLGVYYCFQGSHVPYTFGGGTKLEIKR
